Targets include S309; BD55–5840; DXP-604.
What all share (assay): SPR
(In general: In SPR one partner is held on a chip, and binding of the other changes the refractive index at the surface.)

The target in assay [1] is SARS-CoV-2 Spike RBD, original (Wuhan) strain (SARS-CoV-2, original Wuhan strain) (UniProt P0DTC2).
Assay [2] has as its target Efficient evolution design from the S309 starting point (Table 4, design row 1, the 4th table, row 4).
Assay [3] has as its target Inverse folding design from the DXP-604 starting point (Table 5, design row 1, the 5th table, row 4).
Assay [4] deals with Inverse folding design from the DXP-604 starting point (Table 5, design row 2, the 5th table, row 5).
The target in assay [5] is Inverse folding design from the DXP-604 starting point (Table 5, design row 3, the 5th table, row 6).
The target in assay [6] is Inverse folding design from the DXP-604 starting point (Table 5, design row 4, the 5th table, row 7).
For assay [7], the target named is Inverse folding design from the DXP-604 starting point (Table 5, design row 5, the 5th table, row 8).
For assay [8], the target named is Inverse folding design from the DXP-604 starting point (Table 5, design row 6, the 5th table, row 9).
Assay [9] addresses Inverse folding design from the DXP-604 starting point (Table 5, design row 7, the 5th table, row 10).
Assay [10] deals with OAS scanning design from the DXP-604 starting point (Table 2, 1st design row, the 2nd table, row 8).
Assay [11] has as its target Efficient evolution design from the S309 starting point (Table 4, design row 2, the 4th table, row 5).
Assay [12] addresses Efficient evolution design from the S309 starting point (Table 4, design row 5, the 4th table, row 8).
For assay [13], the target named is Inverse folding design from the LY-CoV1404 starting point (Table 5, design row 1, the 5th table, row 12).
Assay [14] concerns the target Inverse folding design from the LY-CoV1404 starting point (Table 5, design row 2, the 5th table, row 13).
In assay [15] the target is Efficient evolution design from the S309 starting point (Table 4, design row 3, the 4th table, row 6).
Assay [16] deals with Efficient evolution design from the S309 starting point (Table 4, design row 6, the 4th table, row 9).
Assay [17] addresses OAS scanning design from the DXP-604 starting point (Table 2, 2nd design row, the 2nd table, row 9).

As usually defined, the pKD is the KD on a negative log10 scale, so that one unit is a factor of ten. A high value points to a small KD. On to DXP-604 (antibody), for which the pKD in assay [1] was 9.67 -log10(KD).

With “SARS-CoV-2 Spike RBD, XBB.1 strain (from UniProt P0DTC2) (domain or fragment)”, the pKD in assay [2] was 8.7 -log10(KD); in assay [3], 5.78 -log10(KD); in assay [4], 5.99 -log10(KD); in assay [5], 5.12 -log10(KD); in assay [6], 5.84 -log10(KD); in [7], 5.91 -log10(KD). In addition, the negative-log KD (pKD) in assay [8] was 6.37 -log10(KD); in assay [9] it was 6.15 -log10(KD); in assay [10] it was 5.35 -log10(KD); in the assay with S309, 8.93 -log10(KD).

For the substance “SARS-CoV-2 Spike RBD, XBB.1.5 strain (from UniProt P0DTC2) (domain or fragment)”, the pKD with BD55–5840 was 6.14 -log10(KD); with DXP-604, 5.84 -log10(KD); in [2] it was 8.89 -log10(KD); in assay [11], 8.93 -log10(KD); in assay [12], 9.12 -log10(KD); in assay [13], 4.87 -log10(KD). The negative logarithm of the KD (pKD) in assay [14] was 4.88 -log10(KD); in [10], 5.87 -log10(KD).

In the case of “SARS-CoV-2 Spike RBD, original (Wuhan) strain (from UniProt P0DTC2) (domain or fragment)”, the negative-log KD (pKD) in assay [2] is 8.7 -log10(KD); in [15] it was 8.7 -log10(KD); in [16], 8.7 -log10(KD); in [10], 9.07 -log10(KD); in assay [17] it was 9.38 -log10(KD).

The record behind these values is article PMC12164381.
